Measured values reported in patent publication US20230107034A1 (BRIGHAM AND WOMEN S HOSPITAL, published 2023).
Values joined by “and” are separate entries in the source; they are usually repeats but may differ in a detail not shown here. Equal values may be shown once.

Columns and labels:
[1] = target: soluble synaptotoxic Aβ in aqueous human AD brain extract (human, UniProt P05067 18-701); test: cell-based or functional assay
[2] = target: T1, synthetic Aβ-derived diffusible ligands (ADDLs) (UniProt P05067 672-713); test: binding profile column of Table 5
T1 construct: domain: Aβ1-42; Oligomeric assembly; also called synthetic Aβ oligomers

monomeric Aβ = target: T2, monomeric Aβ (UniProt P05067 672-713); test: binding profile column of Table 5
T2 construct: also called Aβ monomer; Aβ1-40 monomer and/or Aβ1-42 monomer

[3] = target: T3, synthetic Aβ protofibrils (Aβ1-42-derived protofibrils) (UniProt P05067 672-713); test: binding profile column of Table 5
T3 construct: domain: Aβ1-42; Multimeric assembly; also called PF; PFs
T3 sequence (P05067 672-713 limits assumed): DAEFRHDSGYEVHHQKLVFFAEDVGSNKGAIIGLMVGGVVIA

soluble synaptotoxic Aβ in aqueous human AD brain extract, sequence (P05067 18-701): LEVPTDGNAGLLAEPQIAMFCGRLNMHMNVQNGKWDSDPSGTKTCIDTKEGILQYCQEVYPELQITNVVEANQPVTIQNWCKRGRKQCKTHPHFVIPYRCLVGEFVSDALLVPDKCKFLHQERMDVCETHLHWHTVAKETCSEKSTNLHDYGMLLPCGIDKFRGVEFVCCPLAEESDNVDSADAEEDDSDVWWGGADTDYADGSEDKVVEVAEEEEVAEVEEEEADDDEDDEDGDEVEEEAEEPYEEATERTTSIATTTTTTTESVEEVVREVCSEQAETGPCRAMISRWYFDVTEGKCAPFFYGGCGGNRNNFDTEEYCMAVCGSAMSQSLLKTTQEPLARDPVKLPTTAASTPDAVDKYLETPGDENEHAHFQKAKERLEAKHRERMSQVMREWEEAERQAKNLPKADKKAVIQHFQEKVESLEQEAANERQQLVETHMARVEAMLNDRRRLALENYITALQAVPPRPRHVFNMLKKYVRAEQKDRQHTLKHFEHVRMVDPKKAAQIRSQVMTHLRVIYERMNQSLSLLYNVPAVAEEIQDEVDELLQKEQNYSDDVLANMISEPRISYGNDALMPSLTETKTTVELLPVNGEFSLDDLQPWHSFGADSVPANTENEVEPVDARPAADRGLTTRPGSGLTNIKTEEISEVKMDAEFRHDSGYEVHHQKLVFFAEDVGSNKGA
T1 sequence (P05067 672-713 limits assumed): as the sequence (P05067 672-713 limits assumed) above
T2 sequence (P05067 672-713): as the sequence (P05067 672-713 limits assumed) above

B1: rB28 (recombinant B28, human IgG1 LALA) (antibody, V domains shown)
VH: QVQLVESGGGVVQPGRSVRLSCAATGFTFSSYGMHWVRQAPGKGLEWVAVIWFDGSNEYYADSVRGRFTISRDNSKNTLYLQMNSLRAEDTAVYYCARRGRVGVTRNYYYYNMDVWGQGTTVTVSS
VL: AIQMTQSPSSLSASVGDRVTITCRASQGIRNDLGWFQQKPGKAPKLLIYPASSLQSGVPSRFSGSGSDTDFTLTISSLQPEDFATYYCLQDYNFPFTFGPGTKVDIKR
EC50 of neuritotoxicity protection, iN cellular assay, Mean [1]: 1.53 µg/mL
EC50 of neuritotoxicity protection, iN cellular assay, Run11 [1]: 1.76 µg/mL
EC50 of neuritotoxicity protection, iN cellular assay, Run12 [1]: 1.34 µg/mL
EC50 of neuritotoxicity protection, iN cellular assay, Run13 [1]: 1.5 µg/mL

B2: rB24 (recombinant B24, human IgG1 LALA) (antibody, V domains shown)
VH: EVQLLESGGGLVQPGGSLRLSCAASGFTFSSYAMTWVRQAPGEGLEWVSTISGSGIRTYYADSVKGRFTISRDNSKNTMYLQMNSLRAEDTAVYYCAKDGLTGDRRWYFDLWGRGTLVTVSS
VL: EIVMTQSPATLSLSPGERATLSCRASQSVSSSYFSWYQQKPGQAPRLLIYGASTRATGIPARFSGSGSGTDFTLTISSLQPEDFAVYYCQQDSNLPLTFGGGTKVEIKR
EC50 of neuritotoxicity protection, iN cellular assay, Mean [1]: 3.97 µg/mL
EC50 of neuritotoxicity protection, iN cellular assay, Run15 [1]: 2.53 µg/mL
EC50 of neuritotoxicity protection, iN cellular assay, Run17 [1]: 5.4 µg/mL

B3: rC11 (recombinant C11, human IgG1 LALA) (antibody, V domains shown)
VH: QVQLQESGPGLVKPSETLSLTCTVSGGSISSYYWSWIRQPPGKGLEWIGSIYYSGTTKYNPSLKSRVTISVGTSKNQFSLKLNSVTAADTAVYYCARDNWGSRFDYWGQGTLVTVSS
VL: DIQMTQSPSSLSASVGDRVTITCRASQGIRNDLGWYQQKPGKAPTLLIYAASSLQSGVPSRFSGSGSGTDFTLTISSLQPEDFATYYCLQDFNYPYTFGQGTKLEIKR
EC50 of neuritotoxicity protection, iN cellular assay, Mean [1]: 2.79 µg/mL
EC50 of neuritotoxicity protection, iN cellular assay, Run16 [1]: 3.58 µg/mL and 2.19 µg/mL
EC50 of neuritotoxicity protection, iN cellular assay, Run17 [1]: 2.58 µg/mL

B4: C11 (hybridoma-purified mAb) (antibody, V domains shown)
VH: QVQLQESGPGLVKPSETLSLTCTVSGGSISSYYWSWIRQPPGKGLEWIGSIYYSGTTKYNPSLKSRVTISVGTSKNQFSLKLNSVTAADTAVYYCARDNWGSRFDYWGQGTLVTVSS
VL: DIQMTQSPSSLSASVGDRVTITCRASQGIRNDLGWYQQKPGKAPTLLIYAASSLQSGVPSRFSGSGSGTDFTLTISSLQPEDFATYYCLQDFNYPYTFGQGTKLEIK
notes: Purified from a Trianni mouse hybridoma (FusC); also called purified clone C11
binding result [2]: no binding
binding result (monomeric Aβ): no binding
binding result [3]: no binding

B5: C10 (hybridoma-purified mAb) (antibody, V domains shown)
VH: QVQLQESGPGLVKPSETLSLTCTVSGGSISSYYWSWIRQPPGKGLEWIGSIYYSGTTKYNPSLKSRVTISVGTSKNQFSLKLNSVTAADTAVYYCARDNWGSRFDYWGQGTLVTVSS
VL: DIQMTQSPSSLSASVGDRVTITCRASQGIRNDLGWYQQKPGKAPTLLIYAASSLQSGVPSRFSGSGSGTDFTLTISSLQPEDFATYYCLQDFNYPYTFGQGTKLEIK
notes: also called purified clone C10
binding result [2]: no binding
binding result (monomeric Aβ): no binding
binding result [3]: no binding

B6: B75 (hybridoma-purified mAb) (antibody, V domains shown)
VH: QVQLVESGGGVVQPGRSLRLSCAASGFTFSSYGMHWVRQAPGKGLEWVAVIWYDGSYKYYADSVKGRFTISRDNSKNTLYLQMNSLRVEDTAVYYCAREGRTYYDFLTGYFDFWGQGTLVTVSS
VL: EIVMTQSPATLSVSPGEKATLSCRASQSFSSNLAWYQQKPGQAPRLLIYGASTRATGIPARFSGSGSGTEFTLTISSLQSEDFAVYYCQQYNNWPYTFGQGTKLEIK
EC50 of neuritotoxicity protection, iN cellular assay, Mean [1]: 2.05 µg/mL
EC50 of neuritotoxicity protection, iN cellular assay, Run13 [1]: 2.05 µg/mL

B7: rB75 (recombinant B75, human IgG1 LALA) (antibody, V domains shown)
VH: QVQLVESGGGVVQPGRSLRLSCAASGFTFSSYGMHWVRQAPGKGLEWVAVIWYDGSYKYYADSVKGRFTISRDNSKNTLYLQMNSLRVEDTAVYYCAREGRTYYDFLTGYFDFWGQGTLVTVSS
VL: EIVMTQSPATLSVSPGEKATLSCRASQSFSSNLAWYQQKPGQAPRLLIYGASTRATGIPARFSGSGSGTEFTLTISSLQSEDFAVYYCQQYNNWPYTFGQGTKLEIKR
EC50 of neuritotoxicity protection, iN cellular assay, Mean [1]: 4.08 µg/mL
EC50 of neuritotoxicity protection, iN cellular assay, Run15 [1]: 2.11 µg/mL
EC50 of neuritotoxicity protection, iN cellular assay, Run16 [1]: 6.04 µg/mL

B8: rB73 (recombinant B73, human IgG1 LALA) (antibody, V domains shown)
VH: QLQLQMSGPGLVKPSETLSLTCTVSGGSISSSSYYWGWIRQSPGKGLEWIGSIYYSGRTYYNPSLKSRVTISVDTSKNQFSLKLSSVTAADTAMYYCARRSSGRPYYWGQGTLVTVSS
VL: QAVVTQESALTTSPGGTVILTCRSSTGAVTTSNYANWVQEKPDHLFTGLIGETNNRAPGVPVRFSGSLIGDKAALTITGAQTEDDAMYFCALWYSTHWVFGGGTKLTVLG
EC50 of neuritotoxicity protection, iN cellular assay, Mean [1]: 1.94 µg/mL
EC50 of neuritotoxicity protection, iN cellular assay, Run10 [1]: 1.98 µg/mL
EC50 of neuritotoxicity protection, iN cellular assay, Run11 [1]: 1.97 µg/mL
EC50 of neuritotoxicity protection, iN cellular assay, Run12 [1]: 1.49 µg/mL
EC50 of neuritotoxicity protection, iN cellular assay, Run14 [1]: 2.32 µg/mL
